Experimental findings from patent US20080153737A1 are described below.

What all share (experiment): cell-based or functional assay
Experiment [1] concerns the target HIV envelope protein (env, gp160/gp120) of HIV strain IIIB on infected cells and virus (HIV strain IIIB) (UniProt P04578).
Experiment [2] addresses ErbB2 receptor on SKBR3 breast cancer cells (UniProt P04626).
Experiment [3] concerns the target HIV env gp160 stably expressed on mouse melanoma B16 cells (gp160-B16) (HIV (strain not stated)).

“F105 (antibody Fab fragment against HIV envelope, lacking protamine)”: in experiment [1], the reduction of HIV infection in primary CD4 T cells (p24 Ag ELISA of culture supernatants) amounted to 30% and the reduction of HIV replication in infected primary CD4 cells (F105 + gag siRNA condition) fell in the range of 25 to 28%.
On to “single chain ErbB2 antibody protamine fusion protein ML39 ScFv-P (from UniProt P04553 8-29)”, for which the delivery of FITC-siRNA into cells (flow cytometry) in experiment [2] is 32 % of cells.
Regarding “F105-protamine (Fab fragment of human anti-HIV gp120 antibody F105, heavy chain fused at its C-terminus to full-length protamine) (from UniProt P04553 1-51)”, in experiment [1], the reduction of HIV infection in primary CD4 T cells (p24 Ag ELISA of culture supernatants) amounted to 30%; the reduction of HIV replication in infected primary CD4 cells (F105-P + irrelevant GFP siRNA condition) was 25 to 28%; the uptake of FITC-CD4 siRNA by an HIV IIIB-infected Jurkat culture, 24 h (flow cytometry) was 21 % of cells; the uptake of FITC-labeled siRNA by HIV-infected Jurkat cells (flow cytometry) (% of infected cells) was 40. Besides, the uptake of FITC-siRNA by implanted tumor cells after intravenous injection (fluorescence microscopy) in experiment [3] was 30 % of cells.
